Assay results published in US20140357851A1 (published 2014).
Each block holds one binder with its values, some of them ahead of it.

Legend:
[1] = molecular target: T1, cynomolgus monkey PCSK9, V5- and 6xHis-tagged (cynomolgus monkey, UniProt A0A7N9D9N8 150-747); assay: BIAcore SPR, antibody amine-coupled to CM5 chip, PCSK9 as analyte, pH 7.4
T1 construct: also called cPCSK9-V5-6xHIS; CynoPCSK9
Description: Briefly, the surface plasmon resonance experiments were performed using Biacore 2000 optical biosensors (Biacore, GE Healthcare, Piscataway, N.J.). […] The concentration of PCSK9 protein was varied at 2 fold intervals (the analyte) and was injected over the immobilized antibody surface (at a flow rate of 100 μl/min for 1.5 minutes).
Antibody binding kinetic parameters including kₐ (association rate constant), kd (dissociation rate constant), and KD (dissociation equilibrium constant) were determined using the BIA evaluation 3.1 computer program (BIAcore, Inc. Piscataway, N.J.).

[2] = molecular target: T1, cynomolgus monkey PCSK9, V5- and …; assay: KinExA solution equilibrium
Excerpt: (§1) Briefly, Reacti-Gel™ (6×) (Pierce) was pre-coated with one of human, V5-tagged cyno or His-tagged mouse PCSK9 proteins and blocked with BSA. […] Equilibrium dissociation constant (KD) were obtained from nonlinear regression of the two sets of competition curves using a one-site homogeneous binding model. The KinExA® Pro software was employed in the analysis.

[3] = molecular target: T1, cynomolgus monkey PCSK9, V5- and …; assay: BIAcore solution equilibrium assay, free PCSK9 read on immobilized 21B12
[4] = molecular target: T2, mouse PCSK9, 8xHis-tagged (mouse, UniProt Q80W65 35-694, limits assumed); assay: KinExA solution equilibrium
T2 construct: also called mPCSK9-8xHIS; mPCSK9
Excerpt: as §1

- Kd [1]: 0.19 nM
- Kd [2]: 0.002 nM
B1: 31H4, anti-PCSK9 huIgG4 (antibody, V domains shown)
VH: EVQLVESGGGLVKPGGSLRLSCAASGFTFSSYSMNWVRQAPGKGLEWVSSISSSSSYISYADSVKGRFTISRDNAKNSLYLQMNSLRAEDTAVYFCARDYDFWSAYYDAFDVWGQGTMVTVSS
VL: QSVLTQPPSVSGAPGQRVTISCTGSSSNIGAGYDVHWYQQLPGTAPKLLISGNSNRPSGVPDRFSGSKSGTSASLAITGLQAEDEADYYCQSYDSSLSGSVFGGGTKLTVLQ

- Kd [1]: 0.36 nM
- Kd [3]: 0.011 nM
B2: 21B12, anti-PCSK9 huIgG4 (antibody, V domains shown)
VH: QVQLVQSGAEVKKPGASVKVSCKASGYTLTSYGISWVRQAPGQGLEWMGWVSFYNGNTNYAQKLQGRGTMTTDPSTSTAYMELRSLRSDDTAVYYCARGYGMDVWGQGTTVTVSS
VL: QSALTQPASVSGSPGQSITISCTGTSSDVGGYNSVSWYQQHPGKAPKLMIYEVSNRPSGVSNRFSGSKSGNTASLTISGLQAEDEADYYCNSYTSTSMVFGGGTKLTVLQ
notes: also called 21B12 IgG4; 21B12.1

- Kd [1]: 0.87 nM
- fold lower affinity to mouse PCSK9 than to human and cyno PCSK9 [4]: 10 to 250 fold
- Kd [2]: 0.016 nM
B3: 16F12, anti-PCSK9 huIgG4 (antibody, V domains shown)
VH: QVHLVESGGGVVQPGRSLRLSCAASGFTFNSFGMHWVRQAPGKGLEWVALIWSDGSDEYYADSVKGRFTISRDNSKNTLYLQMNSLRAEDTAVYYCARAIAALYYYYGMDVWGQGTTVTVSS
VL: QSVLTQPPSVSAAPGQKVTISCSGSSSNIGNNFVSWYQQLPGTAPKLLIYDYNKRPSGIPDRFSGSKSGTSATLGITGLQTGDEADYYCGTWDSSLSAYVFGTGTRVTVLQ
notes: also called 16F12 IgG4; 16F12.1
